Laboratory results as given in patent US20030095977A1 (published 2003).

Molecular target: T1, CD20 (human, UniProt P11836 1-297)
T1 construct: whole, on cells; also called CD20 on Ramos cells
T1 sequence (looked up): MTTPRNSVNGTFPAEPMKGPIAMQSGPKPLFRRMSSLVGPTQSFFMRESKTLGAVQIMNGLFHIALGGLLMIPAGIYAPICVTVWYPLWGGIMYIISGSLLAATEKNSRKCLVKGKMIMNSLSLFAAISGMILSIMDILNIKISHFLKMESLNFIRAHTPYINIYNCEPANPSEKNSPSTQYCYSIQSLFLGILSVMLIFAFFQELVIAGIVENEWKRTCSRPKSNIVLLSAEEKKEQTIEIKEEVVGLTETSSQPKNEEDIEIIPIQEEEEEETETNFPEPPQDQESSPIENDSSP
Assay: saturation binding of radiolabeled mAb to Ramos cells (10^7 cells), nonlinear regression; avidity

B1: B9E9 mAb (murine anti-CD20 antibody B9E9) (antibody, V domains shown)
VH: QVQLVQSGAELVKPGASVKMSCKASGYTFTSYNMHWVKQTPGQGLEWIGAIYPGNGDTSYNQKFKGKATLTADKSSSTAYMQLSSLTSEDSAVYYCARAQLRPNYWYFDVWGAGTTVTVSS
VL: DIVLSQSPAILSASPGEKVTMTCRASSSVSYMHWYQQKPGSSPKPWIYATSNLASGVPARFSGSGSGTSYSLTISRVEAEDAATYYCQQWISNPPTFGAGTKLELK
- Ka: 1.02e+08 M⁻¹
- Kd: 9.75 nM
